In general, Kd refers to the constant that tells how readily two partners part at equilibrium. Low values mean higher affinity, high ones lower affinity.

Data set [1] concerns the target T1, RHD-CBFb complex (UniProt Q01196;Q13951 50-178;1-141). Nature of the data set: fluorescence anisotropy. Background: Polarisation of emitted light reports the rotation of a fluorescent probe.
For data set [2], the target named is T1, RHD-CBFb complex. Nature of the data set: fluorescence anisotropy. The source holds these as a separate data set.

T1 sequence (Q01196 50-178, chain 1 of 2): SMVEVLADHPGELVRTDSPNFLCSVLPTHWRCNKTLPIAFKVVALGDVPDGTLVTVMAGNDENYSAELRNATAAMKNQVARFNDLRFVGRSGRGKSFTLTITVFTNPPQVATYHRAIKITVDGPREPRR
T1 sequence (Q13951 1-141, chain 2 of 2): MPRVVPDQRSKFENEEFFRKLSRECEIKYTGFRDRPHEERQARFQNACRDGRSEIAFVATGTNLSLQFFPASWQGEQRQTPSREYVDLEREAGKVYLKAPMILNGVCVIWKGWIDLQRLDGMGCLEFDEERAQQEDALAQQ

B1: DNA Apt28A (ssDNA)
DNA: ATTACCGGCGAGTTTTGAACCGCGTAAT
In the case of B1, the binding result with RHD-CBFb complex [1] is recorded as “no binding”.

B2: Apt45A (structured_RNA)
RNA: GGUCCAGGCGCGUUAGCAAAACCGCGGAUC
modifications: none
In turn, B2 showed a Kd with RHD-CBFb complex [2] of 162 ± 102 nM.

B3: Apt28A (structured_RNA)
RNA: AUUACCGGCGAGUUUUGAACCGCGUAAU
modifications: none
Consider B3, for which, in the data set with RHD-CBFb complex [2], binding was put at a Kd of 108 ± 34 nM.

The values above are taken from publication PMC2777437.
